From article PMC5454378, “Histone deacetylase 10 structure and molecular function as a polyamine deacetylase” (Nature Communications, 2017)

Tests used:
Experiment in all cases: purified protein, by the assay type
[1] = substrate: CC(=O)NCCCC[C@H](NC(=O)[C@H](C)NC(=O)CNC(C)=O)C(=O)N[C@@H](CC(N)=O)C(=O)N[C@@H](CC(C)C)C(=O)N[C@@H](CCC(N)=O)C(N)=O; parameters: discontinuous LC-MS deacetylation assay, dansylated product quantified, steady-state kinetics; conditions: 50.0 °C
Description: (§1) To study steady-state kinetics with non-fluorogenic peptide substrates and acetylpolyamines, a discontinuous LC–MS was employed based on the protocol of assaying nonfluorogenic acetyllysine peptide substrates for HDAC6 (ref. [17]). Assays were performed in triplicate. Briefly, 5 μl of enzyme (0.050–20 μM) in HEPES buffer (20 mM HEPES (pH 7.5), 100 mM NaCl, 5 mM KCl, 1 mM MgCl2) was added to 35 μl of substrate solution to initiate the reaction. […] The deacetylation products were derivatized with dansyl chloride at 50 °C for 2 hrs. The deacetylation products were detected by LC–MS using a Waters SQD equipped with an Acquity UPLC (Waters, Milford, MA, USA) and quantified by using the standard curves generated from the mass signals of the corresponding deacetylated polyamines and peptides. Inhibition of HDAC10 activity was measured by using 0.49 μM zHDAC10 with 192 μM N^8-acetylspermidine. Data were analysed by logistic regression for IC50 determination and the inhibition constant Ki was calculated based on the Cheng-Prusoff equation, Ki=IC50 / (1+[S]/KM)[45]. Assays were performed in triplicate at room temperature.

[2] = substrate: CC(=O)NCCCC[C@H](NC(=O)[C@H](C)NC(=O)CNC(C)=O)C(=O)Nc1ccc2c(C)cc(=O)oc2c1; parameters: fluorogenic AMC-conjugated acetyllysine peptide deacetylation, steady-state kinetics
Source text: To determine steady-state kinetic parameters for the hydrolysis of a variety of acetylpolyamine and acetyllysine substrates, we prepared full-length recombinant HDAC10 from human (H. sapiens, hHDAC10) and zebrafish (D. rerio, zHDAC10). The CDs of these orthologues are highly similar based on 63%/79% sequence identity/similarity; only full-length constructs yielded soluble proteins. We first assayed the lysine deacetylase activity of these constructs against two commercially available aminomethylcoumarin (AMC)-conjugated fluorogenic acetyllysine peptides, GAK(ac)-AMC and RGK(ac)-AMC (molecular structures of all substrates are shown in Supplementary Fig. 2). […] These measurements were consistent with earlier studies reporting that HDAC10 activity was not measurable using fluorogenic peptide substrates. We also tested activity with 11 non-fluorogenic acetyllysine substrates using a […] chromatography–mass spectrometry (LC–MS)-based discontinuous assay[17] to avoid potential steric clashes that might occur with the bulky AMC group. These substrates included K(ac)NL and GAK(ac)NLQ, which mimic the peptide segment containing K73 in the proposed HDAC10 substrate MutS homologue 2 (MSH2)[22]. Again, we observed no or very low catalytic activity (Fig. 2 and Supplementary Table 1). In comparison with its closest relative, the cytosolic isozyme HDAC6 (ref. [17]), HDAC10 was clearly not an efficient lysine deacetylase.

[3] = substrate: CC(=O)NCCCC[C@H](NC(C)=O)C(N)=O; parameters: discontinuous LC-MS deacetylation assay, dansylated product quantified, steady-state kinetics; conditions: 50.0 °C
Description: as §1

[4] = substrate: CC(=O)NCCCC[C@H](NC(=O)[C@H](C)NC(C)=O)C(=O)N[C@@H](C)C(N)=O; parameters: discontinuous LC-MS deacetylation assay, dansylated product quantified, steady-state kinetics; conditions: 50.0 °C
Description: as §1

[5] = substrate: CC(=O)NCCCCCN; parameters: steady-state kinetics of acetylpolyamine deacetylation, discontinuous LC-MS after dansyl chloride derivatization
Description: (§2) To study steady-state kinetics with non-fluorogenic peptide substrates and acetylpolyamines, a discontinuous LC–MS was employed based on the protocol of assaying nonfluorogenic acetyllysine peptide substrates for HDAC6 (ref. [17]). Assays were performed in triplicate. Briefly, 5 μl of enzyme (0.050–20 μM) in HEPES buffer (20 mM HEPES (pH 7.5), 100 mM NaCl, 5 mM KCl, 1 mM MgCl2) was added to 35 μl of substrate solution to initiate the reaction. After incubation for 15–60 min at room temperature, the reaction was quenched by addition of 50 μl of 20 mM dansyl chloride dissolved in acetonitrile followed by 10 μl of NaHCO3 (1.6 M, pH 10.0). The deacetylation products were derivatized with dansyl chloride at 50 °C for 2 hrs. The deacetylation products were detected by LC–MS using a Waters SQD equipped with an Acquity UPLC (Waters, Milford, MA, USA) and quantified by using the standard curves generated from the mass signals of the corresponding deacetylated polyamines and peptides. Inhibition of HDAC10 activity was measured by using 0.49 μM zHDAC10 with 192 μM N^8-acetylspermidine. Data were analysed by logistic regression for IC50 determination and the inhibition constant Ki was calculated based on the Cheng-Prusoff equation, Ki=IC50 / (1+[S]/KM)[45]. Assays were performed in triplicate at room temperature. We next tested the PDAC activity of hHDAC10 and zHDAC10 against several polyamine substrates using the LC–MS assay (Fig. 2, Supplementary Fig. 3 and Supplementary Table 1). […] For hHDAC10 and zHDAC10, kcat/KM=2,900±200 and 4,600±300 M^−1 s^−1, respectively; in comparison, N^1-acetylspermidine was a poor substrate with kcat/KM=24±5 and 7±2 M^−1 s^−1, respectively. Substrate specificity trends observed for zHDAC10 and hHDAC10 matched those of the previously reported mammalian N^8-acetylspermidine deacetylase activity. […] As a negative control, we examined the N^8-acetylspermidine deacetylase activity of human and zebrafish HDAC6 (ref. [17]). HDAC6 preferentially catalyses the deacetylation of the peptide substrate RGK(ac)-AMC with a catalytic efficiency >100-fold greater than that for the deacetylation of N^8-acetylspermidine. Therefore, HDAC6 is clearly an acetyllysine deacetylase and HDAC10 is an N^8-acetylspermidine deacetylase. It is notable that the molecular function of HDAC10 coincides with the cellular function of the cytosolic PDAC indicated in Fig. 1a.

[6] = substrate: CC(=O)NCCCCNCCCN; parameters: steady-state kinetics of acetylpolyamine deacetylation, discontinuous LC-MS after dansyl chloride derivatization
Description: as §2

[7] = substrate: CC(=O)NCCCCN; parameters: steady-state kinetics of acetylpolyamine deacetylation, discontinuous LC-MS after dansyl chloride derivatization
Description: as §2

[8] = substrate: CC(=O)NCCCNCCCCNCCCN; parameters: steady-state kinetics of acetylpolyamine deacetylation, discontinuous LC-MS after dansyl chloride derivatization
Description: as §2

[9] = substrate: CC(=O)NCCCCCCCCN; parameters: steady-state kinetics of acetylpolyamine deacetylation, discontinuous LC-MS after dansyl chloride derivatization
Description: as §2

[10] = substrate: CC(=O)NCCCCNCCCNC(C)=O; parameters: steady-state kinetics of acetylpolyamine deacetylation, discontinuous LC-MS after dansyl chloride derivatization
Description: as §2

B1: zHDAC6 CD2 (Danio rerio) (protein)
chain: MDAVPDTKGSSGPPRGTPETKNNKKNLQEARRKGRMDRSKAEEEMSNELQNLDVQGKSKATGTGLVYVDAFTRFHCLWDASHPECPARVSTVMEMLETEGLLGRCVQVEARAVTEDELLLVHTKEYVELMKSTQNMTEEELKTLAEKYDSVYLHPGFFSSACLSVGSVLQLVDKVMTSQLRNGFSINRPPGHHAQADKMNGFCMFNNLAIAARYAQKRHRVQRVLIVDWDVHHGQGIQYIFEEDPSVLYFSVHRYEDGSFWPHLKESDSSSVGSGAGQGYNINLPWNKVGMESGDYITAFQQLLLPVAYEFQPQLVLVAAGFDAVIGDPKGGMQVSPECFSILTHMLKGVAQGRLVLALEGGYNLQSTAEGVCASMRSLLGDPCPHLPSSGAPCESALKSISKTISDLYPFWKSLQTFEGGPLSEVSPLPAPVCAEVKVSSPITGLVYDQRMMLHHNMWDSHHPELPQRISRIFSRHEELRLLSRCHRIPARLATEEELALCHSSKHISIIKSSEHMKPRDLNRLGDEYNSIFISNESYTCALLAAGSCFNSAQAILTGQVRNAVAIVRPPGHHAEKDTACGFCFFNTAALTARYAQSITRESLRVLIVDWDVHHGNGTQHIFEEDDSVLYISLHRYEDGAFFPNSEDANYDKVGLGKGRGYNVNIPWNGGKMGDPEYMAAFHHLVMPIAREFAPELVLVSAGFDAARGDPLGGFQVTPEGYAHLTHQLMSLAAGRVLIILEGGYNLTSISESMSMCTSMLLGDSPPSLDHLTPLKTSATVSINNVLRAHAPFWSSLRVNIPESLRLSLPSPKPKGKCTPGGKGKKSPRQSTPSQSPGQATHRPDQSGFDELTADLLSLNLNTSTSSNTSPESVAVGGARRKVKPNTHRVSAGLESESPLKLNPEKAGAGDDTDVKAETPNRSISEPVVTCDSSAVKDQESLVLEAAGGNTVQSVLERVFGAQATDVDTMYVVDPLPWCPHLESVRPVPAGGIDVFQPCEECGGEAENWICLFCYKVLCGRYVNQHMVTHGQESGHPVVLSFADLSVWCYACESYVHNKVLHEAKNAAHLVKFGEGIHPFN
notes: catalytic domain 2
B1 was tested, and the Km [1] was 150 ± 20 µM, the kcat [1] was 1.26 ± 0.07 s⁻¹ and the kcat/Km [1] was 8300 M⁻¹ s⁻¹.

B2: hHDAC10 (Homo sapiens) (protein)
chain: GTALVYHEDMTATRLLWDDPECEIERPERLTAALDRLRQRGLEQRCLRLSAREASEEELGLVHSPEYVSLVRETQVLGKEELQALSGQFDAIYFHPSTFHCARLAAGAGLQLVDAVLTGAVQNGLALVRPPGHHGQRAAANGFCVFNNVAIAAAHAKQKHGLHRILVVDWDVHHGQGIQYLFEDDPSVLYFSWHRYEHGRFWPFLRESDADAVGRGQGLGFTVNLPWNQVGMGNADYVAAFLHLLLPLAFEFDPELVLVSAGFDSAIGDPEGQMQATPECFAHLTQLLQVLAGGRVCAVLEGGYHLESLAESVCMTVQTLLGDPAPPLSGPMAPCQSALESIQSARAAQAPHWKSLQQQDVTAVPMSPSSHSPEGRPPPLLPGGPVCKAAASAPSSLLDQPCLCPAPSVRTAVALTTPDITLVLPPDVIQQEASALREETEAWARPHESLAREEALTALGKLLYLLDGMLDGQVNSGIAATPASAAAATLDVAVRRGLSHGAQRLLCVALGQLDRPPDLAHDGRSLWLNIRGKEAAALSMFHVSTPLPVMTGGFLSCILGLVLPLAYGFQPDLVLVALGPGHGLQGPHAALLAAMLRGLAGGRVLALLEENSTPQLAGILARVLNGEAPPSLGPSSVASPEDVQALMYLRGQLEPQWKMLQCHPHLVA
notes: full-length, residues 2–669, MBP fusion
In the case of B2, the Km [2] is reported as 10 ± 1 µM, the kcat [2] is reported as 0.00038 ± 2e-05 s⁻¹ and the kcat/Km [2] is reported as 38 ± 2 M⁻¹ s⁻¹. The Km [3] was 140 ± 40 µM, the kcat [3] was 0.0092 ± 0.0008 s⁻¹ and the kcat/Km [3] was 66 ± 5 M⁻¹ s⁻¹. For the same protein, the Km [4] was 60 ± 20 µM, the kcat [4] was 0.0006 ± 0.0001 s⁻¹ and the kcat/Km [4] was 11 ± 3 M⁻¹ s⁻¹. The kcat ([5]; 50.0 °C) was 0.14 ± 0.02 s⁻¹, the kcat/Km ([5]; 50.0 °C) was 1300 ± 200 M⁻¹ s⁻¹ and the Km ([5]; room temperature) was 110 ± 20 µM. For the same protein, the kcat ([6]; 50.0 °C) was 0.28 ± 0.02 s⁻¹, the kcat/Km ([6]; 50.0 °C) was 2900 ± 200 M⁻¹ s⁻¹ and the Km ([6]; room temperature) was 100 ± 10 µM. The kcat ([7]; 50.0 °C) was 0.35 ± 0.04 s⁻¹, the kcat/Km ([7]; 50.0 °C) was 2100 ± 300 M⁻¹ s⁻¹ and the Km ([7]; room temperature) was 170 ± 50 µM. For the same protein, the kcat ([8]; 50.0 °C) was 0.011 ± 0.002 s⁻¹, the kcat/Km ([8]; 50.0 °C) was 60 ± 10 M⁻¹ s⁻¹ and the Km ([8]; room temperature) was 180 ± 20 µM. The kcat ([9]; 50.0 °C) was 0.1 ± 0.02 s⁻¹, the kcat/Km ([9]; 50.0 °C) was 620 ± 50 M⁻¹ s⁻¹ and the Km ([9]; room temperature) was 160 ± 40 µM. For the same protein, the kcat ([10]; 50.0 °C) was 0.14 ± 0.08 s⁻¹, the kcat/Km ([10]; 50.0 °C) was 900 ± 300 M⁻¹ s⁻¹ and the Km ([10]; room temperature) was 150 ± 90 µM.
